Assay results published in article PMC11516053, “Genomic Amplification of TBC1D31 Promotes Hepatocellular Carcinoma Through Reducing the Rab22A‐Mediated Endolysosomal Trafficking and Degradation of EGFR” (Advanced Science, 2024).

Molecular target: T1, SFB-TBC1D31 (human, UniProt Q96DN5-1 1-1066)
T1 construct: In the SFB pull-down it was left on the streptavidin beads; in the GST pull-down it was eluted with biotin; source: HEK293T, transfected, purified (streptavidin-conjugated beads, eluted with biotin)
T1 sequence (looked up): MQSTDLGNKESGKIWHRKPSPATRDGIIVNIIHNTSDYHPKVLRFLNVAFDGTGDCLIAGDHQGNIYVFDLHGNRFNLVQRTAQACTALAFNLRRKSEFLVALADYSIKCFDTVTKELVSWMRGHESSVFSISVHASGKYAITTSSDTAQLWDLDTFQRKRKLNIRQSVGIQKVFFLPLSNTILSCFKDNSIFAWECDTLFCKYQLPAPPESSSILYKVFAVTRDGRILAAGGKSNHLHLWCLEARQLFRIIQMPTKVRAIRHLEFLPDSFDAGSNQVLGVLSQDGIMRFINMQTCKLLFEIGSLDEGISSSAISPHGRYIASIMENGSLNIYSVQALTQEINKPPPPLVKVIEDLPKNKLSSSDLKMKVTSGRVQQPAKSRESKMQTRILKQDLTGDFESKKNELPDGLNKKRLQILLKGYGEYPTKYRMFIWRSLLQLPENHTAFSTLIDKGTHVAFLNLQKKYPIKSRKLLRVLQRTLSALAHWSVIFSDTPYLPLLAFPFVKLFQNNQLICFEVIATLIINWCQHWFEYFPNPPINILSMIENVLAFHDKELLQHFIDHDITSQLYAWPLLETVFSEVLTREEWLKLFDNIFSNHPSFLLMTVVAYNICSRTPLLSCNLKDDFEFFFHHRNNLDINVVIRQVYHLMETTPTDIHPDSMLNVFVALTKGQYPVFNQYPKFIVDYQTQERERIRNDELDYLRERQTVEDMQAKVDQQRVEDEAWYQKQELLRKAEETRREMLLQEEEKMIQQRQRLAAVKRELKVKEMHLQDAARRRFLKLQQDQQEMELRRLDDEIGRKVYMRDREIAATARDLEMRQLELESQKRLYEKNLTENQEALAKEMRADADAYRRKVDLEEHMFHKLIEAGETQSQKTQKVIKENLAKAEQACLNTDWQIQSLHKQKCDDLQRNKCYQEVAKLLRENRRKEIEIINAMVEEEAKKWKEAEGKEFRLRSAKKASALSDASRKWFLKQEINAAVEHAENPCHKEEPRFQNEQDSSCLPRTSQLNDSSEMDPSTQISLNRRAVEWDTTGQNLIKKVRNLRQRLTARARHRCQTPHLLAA
Test: pull-down; GST pull-down in vitro: GST-Rab22A on Glutathione-Sepharose incubated with eluted SFB-TBC1D31 in NETN buffer, 3 h, 4 °C; detection by Flag antibody
Details: both partners purified

binding result: binds
B1: GST-Rab22A (natural protein, human, UniProt Q9UL26 1-194, looked up)
chain: MALRELKVCLLGDTGVGKSSIVWRFVEDSFDPNINPTIGASFMTKTVQYQNELHKFLIWDTAGQERFRALAPMYYRGSAAAIIVYDITKEETFSTLKNWVKELRQHGPPNIVVAIAGNKCDLIDVREVMERDAKDYADSIHAIFVETSAKNAININELFIEISRRIPSTDANLPSGGKGFKLRRQPSEPKRSCC
notes: On glutathione beads in the GST pull-down; eluted with reduced glutathione for the SFB pull-down; source: E. coli BL21, purified (Glutathione-Sepharose)
